Literature values, collected in publication PMC9866218, “Characterization and Chemical Synthesis of Cm39 (α-KTx 4.8): A Scorpion Toxin That Inhibits Voltage-Gated K^+ Channel KV1.2 and Small- and Intermediate-Conductance Ca^2+-Activated K^+ Channels KCa2.2 and KCa3.1” (Toxins, 2023).
Where two headings read alike, the source gives them in different places.

Legend:
[1] = biological target: KCa3.1 (Homo sapiens) (UniProt O15554)
[2] = biological target: KCa3.1 (Homo sapiens) (UniProt O15554); remark: listed apart in the source

Chain of KCa3.1 (Homo sapiens) (O15554 whole entry): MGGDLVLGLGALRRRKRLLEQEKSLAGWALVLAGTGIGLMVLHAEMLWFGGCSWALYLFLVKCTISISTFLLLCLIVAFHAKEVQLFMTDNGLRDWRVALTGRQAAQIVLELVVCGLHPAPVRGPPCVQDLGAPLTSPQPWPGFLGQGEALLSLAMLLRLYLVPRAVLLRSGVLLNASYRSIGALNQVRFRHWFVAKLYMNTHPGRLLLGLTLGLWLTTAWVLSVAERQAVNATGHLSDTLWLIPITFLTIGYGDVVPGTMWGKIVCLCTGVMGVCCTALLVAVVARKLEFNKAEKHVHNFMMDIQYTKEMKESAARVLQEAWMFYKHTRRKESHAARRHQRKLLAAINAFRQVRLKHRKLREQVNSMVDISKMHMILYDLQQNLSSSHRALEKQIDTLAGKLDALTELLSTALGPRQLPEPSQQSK
Chain of maurotoxin (MTX, α-KTx-6.2) (P80719 whole entry): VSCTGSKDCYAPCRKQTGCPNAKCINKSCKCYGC
Chain of charybdotoxin (ChTx, α-KTx-1.1) (P13487 23-59): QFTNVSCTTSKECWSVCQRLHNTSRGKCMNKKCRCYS

Substance	Kd [1] [nM]	Kd [2] [nM]
charybdotoxin (ChTx, α-KTx-1.1) (from UniProt P13487)	5	
maurotoxin (MTX, α-KTx-6.2) (from UniProt P80719)		1
